The values below come from patent publication US20250171560A1 (INNOVATIVE CELLULAR THERAPEUTICS, published 2025).

Test [1] has as its target T1, recombinant UPK2 extracellular domain (UPK2-His) (Homo sapiens (Human), UniProt O00526 85-155).
T1 construct: Made in E. coli; not shown: His tag
T1 sequence: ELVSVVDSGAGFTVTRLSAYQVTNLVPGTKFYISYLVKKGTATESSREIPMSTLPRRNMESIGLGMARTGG
The experiment in a line: phage ELISA, purified scFv phage on UPK2-his coated at 0.5 ug/ml, OD490. In general terms: An ELISA detects its analyte on a solid surface through an enzyme-linked reagent.

The target of test [2] is T1, recombinant UPK2 extracellular domain …. The test is described as follows: ELISA, antibody dilution series on UPK2-his coated at 0.5 ug/ml, OD490. On the procedure: The ability of recombinant whole antibodies to bind antigen UPK2-His was analyzed using a classical ELISA method.
The target is the same in test [3]. The experiment in a line: SPR, BIAcore X-100; antibody captured by anti-human antibody on chip, UPK2-His as mobile phase. On the procedure: (§1) The affinity of the eight monoclonal antibodies was analyzed using GE's BIAcore X-100. Affinity analysis was performed using a conventional procedure by first capturing the human monoclonal antibody with an anti-human antibody coated on a chip, and then using different concentrations of recombinant UPK2-His as the mobile phase for affinity analysis. […] Among them, the binding and dissociation of S7F11/S7G7 were slow, and the binding of S3D10 was too slow. When the three monoclonal antibodies were analyzed by BIAcore X-100 for affinity analysis, the automatic fitting of KD was poor, and the data was for reference only.
Background: SPR reads the build-up and loss of mass on a sensor chip optically.

For test [4] the target is unchanged. The experiment in a line: SPR, BIAcore X-100; antibody captured, UPK2-His as mobile phase; remark Kd overrun, fit poor, for reference only. Here is the method:
as §1

For test [5] the target is unchanged. The test is described as follows: SPR, BIAcore X-100; antibody captured, UPK2-His as mobile phase; remark U-value = 15, fit poor, for reference only. On the procedure: as §1
Test [6] addresses T2, recombinantly expressed PAP (ACPP-His) (Homo sapiens (Human), UniProt P15309 33-379, limits assumed).
T2 construct: ACPP gene cloned into PTSE-His, expressed in HEK293, purified on Histrap FF; also called serum prostatic acid phosphatase; ACPP antigen; not shown: His tag from vector PTSE-His
T2 sequence: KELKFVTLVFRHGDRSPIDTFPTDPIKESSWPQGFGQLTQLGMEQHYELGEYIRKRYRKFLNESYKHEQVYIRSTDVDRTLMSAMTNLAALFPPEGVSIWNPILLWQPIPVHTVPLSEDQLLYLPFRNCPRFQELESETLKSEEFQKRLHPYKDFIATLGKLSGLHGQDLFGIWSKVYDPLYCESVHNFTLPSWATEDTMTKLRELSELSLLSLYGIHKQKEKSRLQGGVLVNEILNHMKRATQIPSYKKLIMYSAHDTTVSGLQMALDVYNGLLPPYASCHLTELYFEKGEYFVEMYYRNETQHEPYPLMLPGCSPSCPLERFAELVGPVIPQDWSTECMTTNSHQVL
The test is described as follows: SPR, BIAcore X-100; antibody captured by anti-human antibody on chip, recombinant PAP as mobile phase; speculated value, read as weaker than 100 nM because the next sentence says S5D1 has the higher affinity. Here is the method:
(§2) For the affinity assay in FIG. 10, the affinity of two monoclonal antibodies, S5D1 and S5F2, was analyzed using GE's BIAcore X-100 Biomolecular Interaction Analyzer. Affinity analysis was performed using a conventional procedure. The human monoclonal antibody S5D1 or S5F2 was captured using an anti-human antibody coated on a chip. Affinity analysis was then performed using different concentrations of recombinantly expressed PAP as the mobile phase. […] S5D1 has a higher affinity for ACPP antigen.

Test [7] addresses T1, recombinant UPK2 extracellular domain …. The test is described as follows: SPR, BIAcore X-100; antibody captured by anti-human antibody on chip, UPK2-His as mobile phase; exponent as printed, koff/kon gives 2.34e-8. Here is the method:
as §1

The target of test [8] is T2, recombinantly expressed PAP (ACPP-His). The experiment in a line: SPR, BIAcore X-100; antibody captured by anti-human antibody on chip, recombinant PAP as mobile phase. Here is the method:
as §2

The target is the same in test [9]. The test is described as follows: BIAcore X-100, antibody captured by anti-human antibody on the chip, recombinant PAP as the mobile phase. Here is the method:
as §2

B1: scFv UPK2-S2B7 (phage display clone) (scFv)
scFv: EVQLQQSGAELMKPGTSVKMSCKAAGYTFTKYWIGWVKQRPGHGLEWIGDIYPGGGYTLFNEKFKGKATLTADTSSSTAYMQLSSLTSEDSAIYYCARGNYWGQGTTLTVSSGGGGSGGGGSGGGGSDVVMTQTPLTLSVTIGQPASISCKSSQSLLDSDGKTYLNWLLQRPGQSPKRLIYLVSKLDSGVPDRFTGSGSGTDFTLKISRVEAEDLGVYYCWQGTHFPHTFGGGTKLEMK
notes: also called clone S2B7
With B1, the “EC50 (read off the curve)” value in test [1] is around 3e+10 cfu/ml.

B2: recombinant anti-UPK2 monoclonal antibody S3A4 (murine-human chimeric) (antibody, V domains shown)
VH: EVKLKQSGAELVKPGASVKLSCKASGYTLTSYYIYWVKQRPGQGLEWIGGISPSNGNTYFTEKFKNMATLTVDKSSNTAYMQLSSLTSEDSAVYYCARNYDYDVGFAYWGQGTLVTVSS
VL: DVVMTQTPLSLPVSLGDQASISCRSSQSIVHSNGNTYLEWYLQKPGQSPKLLIYKVSNRFSGVPDRFSGSGSGTDFTLKISRVEAEDLGVYYCFQGSHVPFTFGSGTKLEIK
notes: Murine variable regions, human constant regions (vectors pTSEG1n, pTSEK), HEK293; also called UPK2-S3A4
By Kd is commonly meant the equilibrium constant for the complex coming apart. B2: the “EC50 (read off the curve)” value in test [2] is around 0.6 nM. Moreover, in test [3], the Kd worked out at 27.1 nM.

B3: recombinant anti-UPK2 monoclonal antibody S7F11 (murine-human chimeric) (antibody, V domains shown)
VH: EVQLKESGAELVRSGASVKLSCTASAFNIKDYYMNWMKQRPEQGLEWIGWIDPENGDTKYAPKFQGKATITADTSSSTAYLQLTSLTSEDSAVFYCNVNYKYDWFAYWGQGTLVTVSA
VL: DVVMTQSQKFMSTSVGDRVSVTCKASQNVGTNVAWYQQKPGQSPRALIYSASYRYSGVPDRFTGSGSGTDFTLTISNVQSEDLAEYFCQQYNTYPWTFGGGTKLEIK
notes: the first set is used here; Murine variable regions, human constant regions; also called UPK2-S7F11
B3: in [4], the Kd amounted to 2.32 nM.

B4: recombinant anti-UPK2 monoclonal antibody S3D10 (murine-human chimeric) (antibody, V domains shown)
VH: QVQLQQSGAELVRSGASVKLSCTDSGFNIKDYYMNWVKQRPEQGLEWIGWIDPENGVTQYDPKFQGKATVTADTFSNTAYLQLSSLTSEDTAVYYCNANYKYDWFGYWGQGTLVTVSA
VL: NIVMTQSPSSLSASLGERVSLTCRASQEISGYLSWLQQKPDGTIKRLIYAASTLDSGVPERFSGSRSGSDYSLTISSLESEDFADYYCLQYASYPWTFGGGTKLEMK
notes: Murine variable regions, human constant regions (vectors pTSEG1n, pTSEK), HEK293; also called UPK2-S3D10
With B4, the Kd in [5] stood at 4060 nM.

B5: ACPP antibody S5F2 (human full antibody) (antibody, V domains shown)
VH: QVQLVQSGAEVKKPGSSVKVSCKASEDTFSSYVISWVRQAPGQGLEWMGAFIPLLGRVHYAQEFQGRLTITADESTGTAYMELKGLRSDDTAMYYCARDQGFAGDDAFDIWGQGTMVTVSS
VL: LPVLTQPPSASGTPGQRVTISCSGSSSNIGSNAVDWYQQLPGTAPKLLIYTNNRRPSGVPDRFSGSKSGTSGSLAISGLQFEDEADYYCAAWDDSLSGVIFGGGTKVTVL
notes: Human full antibody from vectors pTSEG1n and pTSEK, HEK293
With B5, the equilibrium dissociation constant (Kd) in test [6] is above 100 nM.

B6: recombinant anti-UPK2 monoclonal antibody S7F9 (murine-human chimeric) (antibody, V domains shown)
VH: QVQLKQSGPGLVRPGASVTMSCKASGYTFTSNWMHWVKQRPGQGLDWIGMIDPSNSDTRLNQKFKDKATLNVDKSSNTAYMQLSSLTSDDSAVYYCMRGGGDYWGQGTTLTVSS
VL: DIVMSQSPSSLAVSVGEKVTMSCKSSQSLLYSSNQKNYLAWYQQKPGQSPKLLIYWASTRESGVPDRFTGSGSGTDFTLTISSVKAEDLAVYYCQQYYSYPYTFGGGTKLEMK
notes: Murine variable regions, human constant regions (vectors pTSEG1n, pTSEK), HEK293; also called UPK2-S7F9
B6: the “EC50 (read off the curve)” value in test [2] was around 0.5 nM. Besides, in test [3], the Kd worked out at 16.7 nM.

B7: recombinant anti-UPK2 monoclonal antibody S2B7 (murine-human chimeric) (antibody, V domains shown)
VH: EVQLQQSGAELMKPGTSVKMSCKAAGYTFTKYWIGWVKQRPGHGLEWIGDIYPGGGYTLFNEKFKGKATLTADTSSSTAYMQLSSLTSEDSAIYYCARGNYWGQGTTLTVSS
VL: not shown
notes: Murine variable regions, human constant regions (vectors pTSEG1n, pTSEK); also called UPK2-S2B7
On to B7, for which the “EC50 (read off the curve)” value in [2] was around 0.5 nM. The Kd in [7] was found to be 23.4 nM.

B8: ACPP antibody S5D1 (human full antibody) (antibody, V domains shown)
VH: EVQLVQSGAEVKKPGESLKISCKGSGYTFTNYWIGWVRQMPGKGLEWMGRIYPSDSYTNYSPSFQGQVTISADKSISTAYLQWSSLKASDTAMYYCARDLEPTHHYSWGQGTLVTVSS
VL: QSVLTQPASVSGSPGQSVTISCTGTSSDVGGYNYVSWYQQHPGKPPKLMIYEVSKRPSGVPDRFSGSKSGNTASLTISGLQAEDEADYYCSSHTSSNTLIFGGGTKVTVL
notes: Variable regions cloned into vectors pTSEG1n (heavy) and pTSEK (light) and expressed in HEK293 as human full antibody; also called monoclonal antibody S5D1
With B8, the Kd in test [8] is around 9 nM; in [9], 9.02 nM.

B9: recombinant anti-UPK2 monoclonal antibody S2E2 (murine-human chimeric) (antibody, V domains shown)
VH: QVKLQQSGPELVRPGASVKMSCKASGYTFTTYWMHWVKQRPGQGLEWIGMIDPSNSDTRLNQKFKDKATLNVDTSSNTAYMHLSSLTSEDSAVYYCTLGGTEYWGQGATLTVSS
VL: SIVMTQSPATLSVTPGDRVSLSCRASQSIGDYLHWFQQKSHESPRLLIKYASQSISGIPSRFSGSGSGSDFTLIINTMEPEDVGVYYCQNAHTYPYTFGGGTKLEIK
notes: Murine variable regions, human constant regions (vectors pTSEG1n, pTSEK), HEK293; also called UPK2-S2E2
For the molecule B9, the “EC50 (read off the curve)” value in [2] was around 0.5 nM. For the same molecule, the Kd in [3] was 2.82 nM.

B10: recombinant anti-UPK2 monoclonal antibody S3C10 (murine-human chimeric) (antibody, V domains shown)
VH: QVQLKESGGGLVQPGESLKLSCESSEFPFPSHDMSWVRKTPEKRLELVAAINSDGGSTYYPDTMERRFIISRDNTKKTLYLQMSSLRSEDTALYYCASLPTFAYWGQGTLVTVSA
VL: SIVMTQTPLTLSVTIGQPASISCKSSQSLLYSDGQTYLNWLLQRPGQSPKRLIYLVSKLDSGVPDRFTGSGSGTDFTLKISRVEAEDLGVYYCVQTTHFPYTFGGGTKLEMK
notes: Murine variable regions, human constant regions (vectors pTSEG1n, pTSEK), HEK293; also called UPK2-S3C10
With B10, the “EC50 (read off the curve)” value in test [2] is around 0.5 nM. Besides, in test [3], the dissociation constant Kd came out at 0.911 nM.
